From patent US8221773B2, “Hydrogels and uses thereof” (University of Delaware, priority 2004, dated 2012)
Where no end group is shown, it is not given here.

What was measured:
[1] = Oscillatory rheology of peptide hydrogels (storage and loss moduli); assay type: physicochemical
Description: (gel storage modulus of ˜600 Pa). Gel formation continued to mature after two hours with a doubling of the gel modulus to ~1200 Pa. An equilibrium storage modulus of ~1600 Pa was reached after several hours of gel formation. This equilibrium behavior is clearly shown by the linear, frequency independent moduli measurements in FIG. 6B. For comparison, the storage modulus of strawberry gelatin is ˜50 Pa (data not shown).
In FIG. 6D, a time sweep experiment identical to that performed during the original gel formation was run immediately after the application of 1000% strain at 6 Hz for 180 seconds. The initial modulus of the reforming gel was 650 Pa with 80% of the equilibrium modulus recovered after only 30 minutes making this a quick recovering and relatively strong hydrogel. For comparison, a 2 wt % gelatin hydrogel takes over 4 h to recover 80% of its equilibrium modulus after shear thinning.
Rheology: Dynamic time and frequency sweep experiments were performed in a strain controlled Rheometrics ARES rheometer with 25.0 mm diameter parallel plate geometry and 0.5 mm gap distance. Lyophilized peptide was dissolved in de-ionized water and buffer or cell growth media solution at 10° C. in order to suppress folding and gelation before the sample is loaded into the rheometer. After the sample was loaded, temperature was increased to either 20° C. or 37° C. Standard low viscosity mineral oil was used to insulate the sides of the plate in order to suppress evaporation. […] Strain sweep experiments were performed to determine the linear viscoelastic regime in which all rheological experiments were performed. Dynamic time sweep experiments were performed with a frequency and strain of 6 rad/s and 1%, respectively. Frequency sweep experiments were performed with a frequency and strain of 0.1-100 rad/s and 5%, respectively.

[2] = Temperature dependent CD: temperature at which folding and self-assembly is triggered (Tgel); assay type: physicochemical; conditions: pH 9 and low (20 mM) salt
Description: At low temperature MAX1 is unfolded (and unassembled). At high temperature MAX1 folds into beta-sheet (and consequently self-assembles into a hydrogel). […] The relative hydrophobicity is MAX1>MAX2>MAX3 due to the isostructural but less hydrophobic substitutions of threonine for valine at the underlined positions. The most hydrophobic folds at the lowest temperature while the least hydrophobic folds at the highest temperature. This is a direct manifestations of the molecular parameter manipulations described in FIG. 2. Also shown are the calculated free energy of transfer of each corresponding unfolded peptide having an overall +8 charge state from octanol into water at 25° C. MAX1, the most hydrophobic has the highest free energy of transfer equal to 7.60 kcal/mol. MAX2 has a calculated transfer free energy of 6.88 kcal/mol, while the least hydrophobic MAX3 has the lowest energy of transfer of 6.45 kcal/mol.
This allows the characteristics of the hydrogels of the invention to be varied by adjusting these parameters. […] It is well known that water is better able to solvate hydrophobic groups at low temperatures. This phenomenon has been used to describe the cold denaturation of proteins where some proteins unfold at low temperatures, exposing their hydrophobic interiors to aqueous solvent. A 150 μM aqueous solution of MAX1 unfolds when cooled below room temperature. The CD spectrum at 5° C. is consistent with random coil conformation, FIG. 9A. However, warming the solution to 40° C. results in a spectra consistent with β-sheet structure. […] In fact, previous studies involving the pH induced folding and self-assembly of MAX1 were performed at 20° C. At this temperature, folding and self-assembly are slow enough to be conveniently monitored. At higher temperatures, folding and self: assembly leading to hydrogelation is fast (instantaneous to seconds depending on concentration). If the formation of hydrophobic interactions affects the folding and self-assembly process, then altering the hydrophobic content of MAX1 should affect the temperature at which folding is triggered. […] MAX2 is identical to MAX1 except that one valine residue has been replaced with the isostructural, but less hydrophobic residue, threonine. In MAX3, two valines are replaced with threonine residues. The resulting peptides vary in their hydrophobicity as evident by comparing calculated free energies of transfer from octanol into water, FIG. 9. […] Thus, the formation of hydrophobic contacts influences folding and self-assembly. […] Thus, the characteristics of the hydrogels of the invention can be varied by adjusting the amino acid residues of the peptides used to form the hydrogels to increase or decrease the hydrophobicity of the amino acid residues used.
There are reports of large polymers that are thermally responsive. The present invention provides the first system that employs temperature triggered folding to induce self-assembly. […] Heating the solution to 80° C. results in a spectra consistent with β-sheet structure. […] The temperatures used in both CD and rheology bracket the temperature (Tgel=60° C., FIG. 9) at which folding and consequent self-assembly is triggered. […] For example, free flowing peptide solutions could be prepared at room temperature and administered in vivo where the temperature of the body could induce gelation. […]

[3] = 2 wt %, pH 7.4, 20 mM NaCl, 20° C
[4] = 2 wt %, pH 9, 1000% strain at 6 Hz for 180 s (FIG. 6D legend)
[5] = 2 wt %, serum free DMEM cell growth media, 37° C

VKVKVKVK V^DPPT KVKVKVKV-NH2 (not fully specified (C-terminus)) [MAX1]
rate of self-assembly leading to a rheological response, compared to MAX4 ([1]; 1 wt % preparations, 40° C, pH 9.0, 125 mM Borate, 10 mM NaCl): faster | G′ values (frequency sweep) ([1]; 2 wt %, cell growth media, 37° C): ~2500 Pa | G′ recovered instantaneously after cessation of shear, of initial value ([1]; 2 wt %, cell growth media, 37° C, after 1000% strain at 6 rad/s): ~50% | hydrogel rigidity (storage modulus) ([1]; 2 wt %, pH 7, NaCl final concentration 150 mM, data not shown): 3000 Pa | G′ during lag time [1, 3]: 2-3 Pa | lag time before G′ increases [1, 3]: 3000 s | storage modulus (G′) ([1]; 2 wt %, pH 7.4, 20 mM NaCl, 20° C, after 2.5 hr gelation): ~100 Pa | lag time before G′ increases ([1]; 2 wt %, pH 7.4, 150 mM NaCl, 20° C): ~1000 s | time of gelation to a material of useful rigidity ([1]; 2 wt %, pH 7.4, 150 mM NaCl, 37° C): about 10 minutes | G′ value (frequency sweep) ([1]; 2 wt %, pH 7.4, 150 mM NaCl, 37° C, after 2.5 hours gelation): around 2000 Pa | lag time before G′ increases ([1]; 2 wt %, pH 7.4, 400 mM NaCl, 20° C): does not exist | equilibrium storage modulus (G′) ([1]; 2 wt %, pH 7.4, 400 mM NaCl, 20° C, after 2.5 hr gelation): ~3000 Pa | former rigidity regained immediately after large strain [1, 4]: ~75% | time to regain prestrain rigidity [1, 4]: 10 to 20 min | equilibrium modulus recovered after 30 minutes ([1]; 2 wt %, pH 9, after 1000% strain at 6 Hz for 180 seconds): 80% | initial modulus of the reforming gel ([1]; 2 wt %, pH 9, immediately after 1000% strain at 6 Hz for 180 seconds): 650 Pa | storage moduli (rigidity) of gels prepared by protocol 1 ([1]; 2 wt %, pH 9 borate buffer trigger, then bathed in DMEM with 10% calf serum): about 1600 Pa | G′ at the end of 2 hours of gelation [1, 5]: 2300 Pa | G″ at the end of 2 hours of gelation [1, 5]: 50 Pa | G′ values ([1]; pH 7.4 without added NaCl, after 3 hours, no gelation): approximately 1 Pa | crossover concentration separating liquid-like (G″>G′) and gel-like (G′>G″) response ([1]; pH 9): about 1 wt % | transition temperature from random coil to folded β-sheet structure [2]: around 25 °C
